Drawing on publication PMC3570547, “An Experimental Verification of the Predicted Effects of Promoter TATA-Box Polymorphisms Associated with Human Diseases on Interactions between the TATA Boxes and TATA-Binding Protein”, this text covers Kd for 27 molecules.

First the molecules themselves.
B1: MBL2 TATA WT (dsDNA)
DNA 1: CATCTATTTCTATATAGCCTGCACCC
DNA 2: GGGTGCAGGCTATATAGAAATAGATG
B2: IL1B TATA WT (dsDNA)
DNA 1: TTTTGAAAGCCATAAAAACAGCGAGG
DNA 2: CCTCGCTGTTTTTATGGCTTTCAAAA
B3: SOD1 -27A>G (dsDNA)
DNA 1: AGGTCTGGCCTGTAAAGTAGTCGCGG
DNA 2: CCGCGACTACTTTACAGGCCAGACCT
B4: HBD TATA WT (dsDNA)
DNA 1: ACAGGACCAGCATAAAAGGCAGGGCA
DNA 2: TGCCCTGCCTTTTATGCTGGTCCTGT
B5: NOS2A -21T>C (dsDNA)
DNA 1: ATGGGGTGAGTATAAATACCTCTTGG
DNA 2: CCAAGAGGTATTTATACTCACCCCAT
B6: FIX TATA WT (dsDNA)
DNA 1: ACAGCTCAGCTTGTACTTTGGTACAA
DNA 2: TTGTACCAAAGTACAAGCTGAGCTGT
B7: HBB -30T>C (dsDNA)
DNA 1: CAGGGCTGGGCACAAAAGTCAGGGCA
DNA 2: TGCCCTGACTTTTGTGCCCAGCCCTG
B8: HBD -31A>G (dsDNA)
DNA 1: ACAGGACCAGCGTAAAAGGCAGGGCA
DNA 2: TGCCCTGCCTTTTACGCTGGTCCTGT
B9: SOD1 TATA WT (dsDNA)
DNA 1: AGGTCTGGCCTATAAAGTAGTCGCGG
DNA 2: CCGCGACTACTTTATAGGCCAGACCT
B10: globin pseudogene -70T>C (dsDNA)
DNA 1: CTGCCACACCCACATTATCAGAAAAT
DNA 2: ATTTTCTGATAATGTGGGTGTGGCAG
B11: CYP2A6 -48T>G (dsDNA)
DNA 1: TTTCAGGCAGTAGAAAGGCAAACCAC
DNA 2: GTGGTTTGCCTTTCTACTGCCTGAAA
B12: HBB -27A>T (dsDNA)
DNA 1: CAGGGCTGGGCATAATAGTCAGGGCA
DNA 2: TGCCCTGACTATTATGCCCAGCCCTG
B13: globin pseudogene TATA WT (dsDNA)
DNA 1: CTGCCACACCCACATTATTAGAAAAT
DNA 2: ATTTTCTAATAATGTGGGTGTGGCAG
B14: MBL2 -35T>C (dsDNA)
DNA 1: CATCTATTTCTACATAGCCTGCACCC
DNA 2: GGGTGCAGGCTATGTAGAAATAGATG
B15: HBB -28A>G (dsDNA)
DNA 1: CAGGGCTGGGCATAGAAGTCAGGGCA
DNA 2: TGCCCTGACTTCTATGCCCAGCCCTG
B16: TF -21C>T (dsDNA)
DNA 1: GCCGGCCCTTTATAGTGCGCGGGGCA
DNA 2: TGCCCCGCGCACTATAAAGGGCCGGC
B17: TPI -24T>G (dsDNA)
DNA 1: CGCGGCGCTCTATAGAAGTGGGCAGT
DNA 2: ACTGCCCACTTCTATAGAGCGCCGCG
B18: HBB -31A>G (dsDNA)
DNA 1: CAGGGCTGGGCGTAAAAGTCAGGGCA
DNA 2: TGCCCTGACTTTTACGCCCAGCCCTG
B19: TPI TATA WT (dsDNA)
DNA 1: CGCGGCGCTCTATATAAGTGGGCAGT
DNA 2: ACTGCCCACTTATATAGAGCGCCGCG
B20: IL1B -31C>T (dsDNA)
DNA 1: TTTTGAAAGCTATAAAAACAGCGAGG
DNA 2: CCTCGCTGTTTTTATAGCTTTCAAAA
B21: HBB -28A>C (dsDNA)
DNA 1: CAGGGCTGGGCATACAAGTCAGGGCA
DNA 2: TGCCCTGACTTGTATGCCCAGCCCTG
B22: CYP2A6 TATA WT (dsDNA)
DNA 1: TTTCAGGCAGTATAAAGGCAAACCAC
DNA 2: GTGGTTTGCCTTTATACTGCCTGAAA
B23: HBB -29A>G (dsDNA)
DNA 1: CAGGGCTGGGCATGAAAGTCAGGGCA
DNA 2: TGCCCTGACTTTCATGCCCAGCCCTG
B24: TF TATA WT (-21C) (dsDNA)
DNA 1: GCCGGCCCTTTATAGCGCGCGGGGCA
DNA 2: TGCCCCGCGCGCTATAAAGGGCCGGC
B25: NOS2A TATA WT (dsDNA)
DNA 1: ATGGGGTGAGTATAAATACTTCTTGG
DNA 2: CCAAGAAGTATTTATACTCACCCCAT
B26: HBB -30T>A (dsDNA)
DNA 1: CAGGGCTGGGCAAAAAAGTCAGGGCA
DNA 2: TGCCCTGACTTTTTTGCCCAGCCCTG
B27: HBB TATA WT (dsDNA)
DNA 1: CAGGGCTGGGCATAAAAGTCAGGGCA
DNA 2: TGCCCTGACTTTTATGCCCAGCCCTG

For the data set, the target named is TBP (TATA-binding protein, hTBP) (Homo sapiens, UniProt P20226 1-339). Nature of the data set: EMSA; Fixed active TBP (typically 0.3 nM) titrated with 32P dsDNA to equilibrium; buffer, salt, pH and temperature not given in the material. Conditions: protein: recombinant; label: 32P both strands; blunt. For orientation: In EMSA bound probe runs differently from free probe, usually more slowly.
Chain of TBP (TATA-binding protein, hTBP) (P20226 whole entry): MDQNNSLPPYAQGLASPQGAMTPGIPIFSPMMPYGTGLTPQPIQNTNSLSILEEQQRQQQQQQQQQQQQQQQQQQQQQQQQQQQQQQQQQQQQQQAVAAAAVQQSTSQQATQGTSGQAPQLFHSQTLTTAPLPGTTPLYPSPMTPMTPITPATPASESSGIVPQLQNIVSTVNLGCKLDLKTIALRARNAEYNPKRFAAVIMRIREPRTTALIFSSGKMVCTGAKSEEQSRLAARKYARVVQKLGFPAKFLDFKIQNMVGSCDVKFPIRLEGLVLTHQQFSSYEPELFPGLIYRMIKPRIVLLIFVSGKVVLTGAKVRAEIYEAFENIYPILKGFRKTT
As a reminder, the Kd is the free concentration of one partner at which half of the binding sites on the other are occupied at equilibrium, for simple one-to-one binding. Turning to B1, the Kd came out at 28 ± 4 nM. Turning to B2, the Kd was 29 ± 4 nM. For B3, the Kd amounted to 170 ± 30 nM. Take B4: the Kd was found to be 46 ± 5 nM.

As for B5, the Kd stood at 1.6 ± 0.3 nM. Under B6 stands 510 ± 60 nM. As to B7, the Kd amounted to 111 ± 8 nM.

Regarding B8, the Kd came to 120 ± 10 nM. B9: the equilibrium dissociation constant (Kd) came out at 40 ± 8 nM. In the case of B10, the dissociation constant Kd was 112 ± 6 nM. Under B11 stands 80 ± 20 nM; under B12, 64 ± 3 nM. Consider B13, for which the dissociation constant Kd was found to be 152 ± 6 nM. Under B14 stands 58 ± 9 nM.

For B15, the Kd came to 87 ± 8 nM. Under B16 stands 26 ± 3 nM.

With B17, the dissociation constant Kd came to 150 ± 20 nM. Under B18 stands 99 ± 9 nM. For B19, the Kd came to 4.8 ± 0.7 nM.

For the molecule B20, the Kd was 7 ± 1 nM. As to B21, the equilibrium dissociation constant (Kd) was determined as 300 ± 20 nM.

As to B22, the Kd was found to be 17 ± 4 nM. Consider B23, for which the Kd was determined as 390 ± 20 nM. With B24, the equilibrium dissociation constant (Kd) was determined as 72 ± 9 nM. In the case of B25, the Kd turned out to be 1.8 ± 0.2 nM. For the molecule B26, the Kd turned out to be 116 ± 5 nM. On to B27, for which the Kd came out at 44 ± 3 nM.
